Common to all, as to assay type: physicochemical
Data set [1] can be described thus: Solubility of the product in water. The conditions noted are these: product of small scale reaction (0.5 g), 2% diacerhein functionalization. On the procedure:
0.044 g Diacerhein were suspended into 20 mL dry THF, followed by addition of 0.022 g CDI dissolved in 2 mL THF. The reaction mixture was stirred for 1 hour at room temperature until a clear solution was obtained. 0.5 g cryo-micronized HA powder were added and the suspension stirred at 70° C. for 24 hours. The reaction mixture was then filtered through a G4-fritte and washed with 150 mL dry THF. The non-soluble remaining HA product was slightly yellowish. By redissolving the product in water small amounts of remaining dispersed diacerhein could be removed by centrifugation to yield a visually clear and transparent aqueous solution.
The obtained product was analyzed by H^1-NMR-, HPLC-, UV- and LC-MS/MS-analyses, and the following results were obtained. The reaction resulted a 100% yield of HA-polymer, close to its original molecular weight with a 2% diacerhein-fimctionalization. No significant degradation of HA in the final product could be observed. […] For further qualitative characterization the HA-diacerhein product was enzymatically hydrolysed, which lead to HA-fragments (oligomers) with and without diacerhein, which could be analysed by HPLC analysis. Furthermore HA-fragments with and without diacerhein attached were identified by LC-MS/MS.

Data set [2] can be described thus: Solution appearance of a 1% (weight/weight) solution in MilliQ water. The conditions noted are these: approx. 10 mg freeze-dried compound in 1 ml MilliQ water, after storage or centrifugation at 14'000 rpm for 10 min. On the procedure: A 1% (weight/weight) solution was obtained by dissolving approximately 10 mg of freeze-dried compound into 1 ml of pure MilliQ water.

The nature of data set [3]: pH determination of the 1% solution. Conditions: 1% (weight/weight) solution in MilliQ water; Metrohm 691 pH-Meter, Biotrode glass electrode. On the procedure: pH of the above described 1% solution was determined to be 5.5 (Metrohm 691 ph-Meter operated with a Biotrode glass electrode; according to specifications received for the initial hyaluronic acid provided by TRB, pH of a 0.5% solution should be between 5.0 and 8.5).

Consider HA-Diacerhein [Example 1], for which, in data set [1], the solubility in water result is recorded as “soluble in water”.

For HA-Diacerhein [Example 2], the “solution appearance / precipitation” value in data set [2] was “no precipitation occurred”. Moreover, in data set [3], the “pH of 1% solution” value stood at 5.5.

(Values after US20140163217A1, “PROCESS FOR THE ESTERIFICATION OF HYALURONIC ACID WITH HYDROPHOBIC ORGANIC COMPOUNDS” (UNIVERSITE DE GENEVE, priority 2010, published 2014).)
